Laboratory results: patent publication US20260242735A1 (UNIVERSIT T BASEL, published 2026)

What was measured:
Experiment in all cases: flow cytometry, transfected cells
[1] = target: human CD33 Y50Q (human, UniProt P20138 18-364)
[2] = target: human CD33 P48G (human, UniProt P20138 18-364)
[3] = target: human CD33 P48D (human, UniProt P20138 18-364)
[4] = target: human CD33 Y50L (human, UniProt P20138 18-364)
[5] = target: human CD33 K52D (human, UniProt P20138 18-364)
[6] = target: human CD33 Y49C (human, UniProt P20138 18-364)
Chain of human CD33 Y49C (P20138 18-364 Y49C limits assumed): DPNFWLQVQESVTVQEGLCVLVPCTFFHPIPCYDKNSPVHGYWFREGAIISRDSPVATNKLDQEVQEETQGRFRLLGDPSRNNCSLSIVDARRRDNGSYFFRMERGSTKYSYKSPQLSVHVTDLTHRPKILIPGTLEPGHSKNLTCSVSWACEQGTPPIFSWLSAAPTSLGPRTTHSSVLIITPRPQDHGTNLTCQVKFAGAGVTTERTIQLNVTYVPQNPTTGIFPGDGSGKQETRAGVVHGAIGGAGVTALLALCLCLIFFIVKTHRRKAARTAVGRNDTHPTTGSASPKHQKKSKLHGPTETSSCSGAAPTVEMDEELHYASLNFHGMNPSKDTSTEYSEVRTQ

[7] = target: human CD33 Y50H (human, UniProt P20138 18-364)
Chain of human CD33 Y50H (P20138 18-364 Y50H limits assumed): as the sequence (P20138 18-364 Y49C limits assumed) above, with C32Y, Y33H counted along it

[8] = target: human CD33 Y50N (human, UniProt P20138 18-364)
Chain of human CD33 Y50N (P20138 18-364 Y50N limits assumed): as the sequence (P20138 18-364 Y49C limits assumed) above, with C32Y, Y33N counted along it

[9] = target: human CD33 Y50D (human, UniProt P20138 18-364)
Chain of human CD33 Y50D (P20138 18-364 Y50D limits assumed): as the sequence (P20138 18-364 Y49C limits assumed) above, with C32Y, Y33D counted along it

[10] = target: human CD33 P48H (human, UniProt P20138 18-364)
Chain of human CD33 P48H (P20138 18-364 P48H limits assumed): as the sequence (P20138 18-364 Y49C limits assumed) above, with P31H, C32Y counted along it

[11] = target: human CD33 Y50G (human, UniProt P20138 18-364)
Chain of human CD33 Y50G (P20138 18-364 Y50G limits assumed): as the sequence (P20138 18-364 Y49C limits assumed) above, with C32Y, Y33G counted along it

[12] = target: human CD33 N20Y (human, UniProt P20138 18-364)
Chain of human CD33 N20Y (P20138 18-364 N20Y limits assumed): as the sequence (P20138 18-364 Y49C limits assumed) above, with N3Y, C32Y counted along it

[13] = target: human CD33 N20Q (human, UniProt P20138 18-364)
Chain of human CD33 N20Q (P20138 18-364 N20Q limits assumed): as the sequence (P20138 18-364 Y49C limits assumed) above, with N3Q, C32Y counted along it

[14] = target: human CD33 N20V (human, UniProt P20138 18-364)
Chain of human CD33 N20V (P20138 18-364 N20V limits assumed): as the sequence (P20138 18-364 Y49C limits assumed) above, with N3V, C32Y counted along it

[15] = target: human CD33 N20G (human, UniProt P20138 18-364)
Chain of human CD33 N20G (P20138 18-364 N20G limits assumed): as the sequence (P20138 18-364 Y49C limits assumed) above, with N3G, C32Y counted along it

[16] = target: human CD33 N20T (human, UniProt P20138 18-364)
Chain of human CD33 N20T (P20138 18-364 N20T limits assumed): as the sequence (P20138 18-364 Y49C limits assumed) above, with N3T, C32Y counted along it

[17] = target: human CD33 N20W (human, UniProt P20138 18-364)
Chain of human CD33 N20W (P20138 18-364 N20W limits assumed): as the sequence (P20138 18-364 Y49C limits assumed) above, with N3W, C32Y counted along it

[18] = target: human CD33 F21V (human, UniProt P20138 18-364)
Chain of human CD33 F21V (P20138 18-364 F21V limits assumed): as the sequence (P20138 18-364 Y49C limits assumed) above, with F4V, C32Y counted along it

[19] = target: human CD33 F21S (human, UniProt P20138 18-364)
Chain of human CD33 F21S (P20138 18-364 F21S limits assumed): as the sequence (P20138 18-364 Y49C limits assumed) above, with F4S, C32Y counted along it

[20] = target: human CD33 W22S (human, UniProt P20138 18-364)
Chain of human CD33 W22S (P20138 18-364 W22S limits assumed): as the sequence (P20138 18-364 Y49C limits assumed) above, with W5S, C32Y counted along it

Measured: binding result

Chain of human CD33 P48G (P20138 18-364 P48G limits assumed): as the sequence (P20138 18-364 Y49C limits assumed) above, with P31G, C32Y counted along it
Chain of human CD33 Y50Q (P20138 18-364 Y50Q limits assumed): as the sequence (P20138 18-364 Y49C limits assumed) above, with C32Y, Y33Q counted along it
Chain of human CD33 P48D (P20138 18-364 P48D limits assumed): as the sequence (P20138 18-364 Y49C limits assumed) above, with P31D, C32Y counted along it
Chain of human CD33 K52D (P20138 18-364 K52D limits assumed): as the sequence (P20138 18-364 Y49C limits assumed) above, with C32Y, K35D counted along it
Chain of human CD33 Y50L (P20138 18-364 Y50L limits assumed): as the sequence (P20138 18-364 Y49C limits assumed) above, with C32Y, Y33L counted along it

B1: Refmab #4 (antibody, human IgG1, V domains shown)
VH: QVQLVQSGAEVKKPGESVKVSCKASGYTFTNYGMNWVKQAPGQGLEWMGWINTYTGEPTYADKFQGRVTMTTDTSTSTAYMEIRNLGGDDTAVYYCARWSWSDGYYVYFDYWGQGTSVTVSS
VL: DIVMTQSPDSLTVSLGERTTINCKSSQSVLDSSTNKNSLAWYQQKPGQPPKLLLSWASTRESGIPDRFSGSGSGTDFTLTIDSPQPEDSATYYCQQSAHFPITFGQGTRLEIK
no binding (tested: below 20%): [1] | [2] | [3] | [4] | [5] | [6] | [7] | [8] | [9] | [10] | [11]

B2: Refmab #1 (antibody, human IgG1, V domains shown)
VH: EVQLVQSGAEVKKPGSSVKVSCKASGYTITDSNIHWVRQAPGQSLEWIGYIYPYNGGTDYNQKFKNRATLTVDNPTNTAYMELSSLRSEDTAFYYCVNGNPWLAYWGQGTLVTVSS
VL: DIQLTQSPSTLSASVGDRVTITCRASESLDNYGIRFLTWFQQKPGKAPKLLMYAASNQGSGVPSRFSGSGSGTEFTLTISSLQPDDFATYYCQQTKEVPWSFGQGTKVEVK
notes: also called hP67.6; Absolute Antibody Cat. No. Ab00283-10.0
no binding (tested: below 20%): [12] | [13] | [14] | [15] | [16] | [17] | [18] | [19]

B3: Refmab #3 (antibody, human IgG1, V domains shown)
VH: QVQLVQSGAEVKKPGSSVKVSCKASGYTFTDYNMHWVRQAPGQGLEWIGYIYPYNGGTGYNQKFKSKATITADESTNTAYMELSSLRSEDTAVYYCARGRPAMDYWGQGTLVTVSS
VL: DIQMTQSPSSLSASVGDRVTITCRASESVDNYGISFMNWFQQKPGKAPKLLIYAASNQGSGVPSRFSGSGSGTDFTLTISSLQPDDFATYYCQQSKEVPWTFGQGTKVEIK
no binding (tested: below 20%): [12] | [13] | [14] | [15] | [16] | [20] | [17] | [18] | [19]

B4: Refmab #6 (antibody, human IgG1, V domains shown)
VH: QVQLQQPGAEVVKPGASVKMSCKASGYTFTSYYIHWIKQTPGQGLEWVGVIYPGNDDISYNQKFQGKATLTADKSSTTAYMQLSSLTSEDSAVYYCAREVRLRYFDVWGQGTTVTVSS
VL: EIVLTQSPGSLAVSPGERVTMSCKSSQSVFFSSSQKNYLAWYQQIPGQSPRLLIYWASTRESGVPDRFTGSGSGTDFTLTISSVQPEDLAIYYCHQYLSSRTFGQGTKLEIK
no binding (tested: below 20%): [20]
